# Starred links: 1 amine or outer side, 2 acyl side, 3 side chain; linkers in the order of their positions; H or OH if unused. Non-standard residues stand in square brackets, D forms with d. No end group written: not given here. dProc3CH24Pal = (2R,3S)-3-(4-pyridylmethyl)pyrrolidine-2-carboxylic acid, O=C([C@H]1[C@@H](Cc2ccncc2)CCN1[*:1])[*:2]; dPyrimA = (2R)-2-amino-3-pyrimidin-5-yl-propanoic acid, O=C([C@@H](Cc1cncnc1)N[*:1])[*:2]; alTOMe = (2S,3S)-2-amino-3-methoxy-butanoic acid, CO[C@@H](C)[C@H](N[*:1])C(=O)[*:2]; ThrOMe = (2S,3R)-2-amino-3-methoxy-butanoic acid, CO[C@H](C)[C@H](N[*:1])C(=O)[*:2]; dPro(4R-(4-pyridylmethyl)) = O=C(O)[C@H]1C[C@@H](Cc2ccncc2)CN1; Trp(βS-Me,4-F) = C[C@@H](c1c[nH]c2cccc(F)c12)[C@H](N)C(=O)O; Bip(4'-COOH) = N[C@@H](Cc1ccc(-c2ccc(C(=O)O)cc2)cc1)C(=O)O; Trp(4-Cl) = N[C@@H](Cc1c[nH]c2cccc(Cl)c12)C(=O)O; Ala(pyrimidin-5-yl) = N[C@@H](Cc1cncnc1)C(=O)O; Phe(4-COOH) = N[C@@H](Cc1ccc(C(=O)O)cc1)C(=O)O; Trp(4-F) = N[C@@H](Cc1c[nH]c2cccc(F)c12)C(=O)O; Bip = N[C@@H](Cc1ccc(-c2ccccc2)cc1)C(=O)O; Nva(5,5,5-F3) = N[C@@H](CCC(F)(F)F)C(=O)O; Pro(cis-4-F) = O=C(O)[C@@H]1C[C@H](F)CN1; dPhe(4-F) = N[C@H](Cc1ccc(F)cc1)C(=O)O; d(αMeF) = C[C@@](N)(Cc1ccccc1)C(=O)O; Dap(CONH2) = NC(=O)NC[C@H](N)C(=O)O; hTyr = N[C@@H](CCc1ccc(O)cc1)C(=O)O; d(αMeD) = C[C@@](N)(CC(=O)O)C(=O)O; 4Pal = N[C@@H](Cc1ccncc1)C(=O)O; d3Pal = N[C@H](Cc1cccnc1)C(=O)O; aThr = C[C@H](O)[C@H](N)C(=O)O; dCha = N[C@H](CC1CCCCC1)C(=O)O; NMeDab = CN[C@@H](CCN)C(=O)O; dCba = N[C@H](CC1CCC1)C(=O)O; dOrn = NCCC[C@@H](N)C(=O)O; dDab = NCC[C@@H](N)C(=O)O; dDap = NC[C@@H](N)C(=O)O; Dab = NCC[C@H](N)C(=O)O; Nva = CCC[C@H](N)C(=O)O; Aib = CC(C)(N)C(=O)O
# Molecular target: Recombinant human IL-1β (BioLegend 579404) (human, UniProt P01584 117-269)
# Assay: cell-based or functional assay
row,Binder,MRC5 IC50 [nM]
1,"cyclo([Bip(4'-COOH)][4Pal][Phe(4-COOH)]G[Pro(cis-4-F)][Trp(βS-Me,4-F)][Aib]SW[d(αMeD)][alTOMe]Q[Dab]G[dPro(4R-(4-pyridylmethyl))]) (ring closure inferred) [SEQ ID NO 254]",0.013
2,"cyclo([Bip][4Pal][Phe(4-COOH)]G[Pro(cis-4-F)][Trp(βS-Me,4-F)][Aib]SW[d(αMeD)][dK]Q[Dap(CONH2)]G[dPro(4R-(4-pyridylmethyl))]) (ring closure inferred) [SEQ ID NO 244]",0.03
3,"cyclo([Bip][4Pal][Phe(4-COOH)]G[Pro(cis-4-F)][Trp(βS-Me,4-F)][Aib]SW[d(αMeD)][dDab]Q[Dab]G[dPro(4R-(4-pyridylmethyl))]) (ring closure inferred) [SEQ ID NO 248]",0.028
4,"cyclo([Bip(4'-COOH)][4Pal][Phe(4-COOH)]G[Pro(cis-4-F)][Trp(βS-Me,4-F)][Aib]SW[d(αMeD)][dS]Q[Dab]G[dPro(4R-(4-pyridylmethyl))]) (ring closure inferred) [SEQ ID NO 242]",0.019
5,"cyclo([Bip(4'-COOH)][4Pal][Phe(4-COOH)]G[Pro(cis-4-F)][Trp(βS-Me,4-F)][Aib]S[Trp(4-Cl)][d(αMeD)][Ala(pyrimidin-5-yl)]Q[Dab]G[dPro(4R-(4-pyridylmethyl))]) (ring closure inferred) [SEQ ID NO 251]",0.013
6,"cyclo([Bip(4'-COOH)][4Pal][Phe(4-COOH)]G[Pro(cis-4-F)][Trp(βS-Me,4-F)][Aib]SW[d(αMeD)][dF]Q[Dab]G[dPro(4R-(4-pyridylmethyl))]) (ring closure inferred) [SEQ ID NO 243]",0.022
7,"cyclo([Bip][4Pal][Phe(4-COOH)]G[Pro(cis-4-F)][Trp(βS-Me,4-F)][Aib]SW[d(αMeD)][dOrn]Q[Dap(CONH2)]G[dPro(4R-(4-pyridylmethyl))]) (ring closure inferred) [SEQ ID NO 245]",0.027
8,"cyclo([Bip(4'-COOH)][4Pal][Phe(4-COOH)]G[Pro(cis-4-F)][Trp(βS-Me,4-F)][Aib]SW[d(αMeD)][Nva]Q[Dab]G[dPro(4R-(4-pyridylmethyl))]) (ring closure inferred) [SEQ ID NO 253]",0.013
9,"cyclo([Bip(4'-COOH)][4Pal][Phe(4-COOH)]G[Pro(cis-4-F)][Trp(βS-Me,4-F)][Aib]SW[d(αMeF)][aThr]Q[Dab]G[dPro(4R-(4-pyridylmethyl))]) (ring closure inferred) [SEQ ID NO 257]",0.021
10,"cyclo([Bip(4'-COOH)][4Pal][Phe(4-COOH)]G[Pro(cis-4-F)][Trp(βS-Me,4-F)][Aib]SW[d(αMeD)][ThrOMe]Q[Dab]G[dPro(4R-(4-pyridylmethyl))]) (ring closure inferred) [SEQ ID NO 255]",0.011
11,"cyclo([Bip][4Pal][Phe(4-COOH)]G[Pro(cis-4-F)][Trp(βS-Me,4-F)][Aib]SW[d(αMeD)][dDap]Q[Dap(CONH2)]G[dPro(4R-(4-pyridylmethyl))]) (ring closure inferred) [SEQ ID NO 246]",0.031
12,"cyclo([Bip(4'-COOH)][4Pal][Phe(4-COOH)]G[Pro(cis-4-F)][Trp(βS-Me,4-F)][Aib]SW[d(αMeD)][hTyr]Q[Dab]G[dPro(4R-(4-pyridylmethyl))]) (ring closure inferred) [SEQ ID NO 256]",0.012
13,"cyclo([Bip][4Pal][Phe(4-COOH)]G[Pro(cis-4-F)][Trp(βS-Me,4-F)][Aib]SW[Aib][dE]Q[Dab]G[dPro(4R-(4-pyridylmethyl))]) (ring closure inferred) [SEQ ID NO 250]",0.027
14,"cyclo([Bip][4Pal][Phe(4-COOH)]G[Pro(cis-4-F)][Trp(βS-Me,4-F)][Aib]SW[d(αMeD)][dE]Q[Dab]G[dPro(4R-(4-pyridylmethyl))]) (ring closure inferred) [SEQ ID NO 249]",0.016
15,"cyclo([Bip][4Pal][Phe(4-COOH)]G[Pro(cis-4-F)][Trp(βS-Me,4-F)][Aib]SW[d(αMeD)][dDab]Q[Dap(CONH2)]G[dPro(4R-(4-pyridylmethyl))]) (ring closure inferred) [SEQ ID NO 247]",0.03
16,"cyclo([Bip(4'-COOH)][4Pal][Phe(4-COOH)]G[Pro(cis-4-F)][Trp(βS-Me,4-F)][Aib]SW[d(αMeF)]EQ[Dab]G[dPro(4R-(4-pyridylmethyl))]) (ring closure inferred) [SEQ ID NO 258]",0.02
17,"cyclo([Bip(4'-COOH)][4Pal][Phe(4-COOH)]G[Pro(cis-4-F)][Trp(βS-Me,4-F)][Aib]S[Trp(4-F)][d(αMeD)][Ala(pyrimidin-5-yl)]Q[Dab]G[dPro(4R-(4-pyridylmethyl))]) (ring closure inferred) [SEQ ID NO 252]",0.013

# Molecular target: Recombinant human IL-1β (BioLegend 579404) (human, UniProt P01584 117-269)
# Assay: cell-based or functional assay
# Remark: another data set of the same source
row,Binder,MRC5 IC50 [nM]
1,"[Bip(4'-COOH)][4Pal][Phe(4-COOH)]G[Pro(cis-4-F)][Trp(βS-Me,4-F)][Aib]SW[d(αMeD)][dCha]Q[Dab]G[dProc3CH24Pal] (lactam (positions not given here); also: macrolactam, ring places not given here) [SEQ ID NO: 237]",0.025
2,"[Bip(4'-COOH)][4Pal][Phe(4-COOH)]G[Pro(cis-4-F)][Trp(βS-Me,4-F)][Aib]SW[d(αMeD)][dL]Q[Dab]G[dProc3CH24Pal] (lactam (positions not given here); also: macrolactam, ring places not given here) [SEQ ID NO: 238]",0.024
3,"[Bip(4'-COOH)][4Pal][Phe(4-COOH)]G[Pro(cis-4-F)][Trp(βS-Me,4-F)][Aib]SW[d(αMeD)][Nva]Q[Dab]G[dProc3CH24Pal] (lactam (positions not given here); also: macrolactam, ring places not given here) [SEQ ID NO: 231]",0.027
4,"[Bip(4'-COOH)][4Pal][Phe(4-COOH)]G[Pro(cis-4-F)][Trp(βS-Me,4-F)][Aib]SW[Aib][dPyrimA]Q[Dab]G[dProc3CH24Pal] (lactam (positions not given here); also: macrolactam, ring places not given here) [SEQ ID NO: 233]",0.03
5,"cyclo([Bip(4'-COOH)][4Pal][Phe(4-COOH)]G[Pro(cis-4-F)][Trp(βS-Me,4-F)][Aib]SW[Aib][Ala(pyrimidin-5-yl)]Q[NMeDab]G[dProc3CH24Pal]) (ring closure inferred) [SEQ ID NO: 241]",0.018
6,"[Bip(4'-COOH)][4Pal][Phe(4-COOH)]G[Pro(cis-4-F)][Trp(βS-Me,4-F)][Aib]SW[d(αMeD)][Nva(5,5,5-F3)]Q[Dab]G[dProc3CH24Pal] (lactam (positions not given here); also: macrolactam, ring places not given here) [SEQ ID NO: 232]",0.022
7,"[Bip(4'-COOH)][4Pal][Phe(4-COOH)]G[Pro(cis-4-F)][Trp(βS-Me,4-F)][Aib]SW[d(αMeD)][Ala(pyrimidin-5-yl)]Q[NMeDab]G[dProc3CH24Pal] (lactam (positions not given here); also: macrolactam, ring places not given here) [SEQ ID NO: 235]",0.018
8,"[Bip(4'-COOH)][4Pal][Phe(4-COOH)]G[Pro(cis-4-F)][Trp(βS-Me,4-F)][Aib]SW[d(αMeD)][dPhe(4-F)]Q[Dab]G[dProc3CH24Pal] (lactam (positions not given here); also: macrolactam, ring places not given here) [SEQ ID NO: 236]",0.021
9,"[Bip(4'-COOH)][4Pal][Phe(4-COOH)]G[Pro(cis-4-F)][Trp(βS-Me,4-F)][Aib]SW[d(αMeD)][dCba]Q[Dab]G[dProc3CH24Pal] (lactam (positions not given here); also: macrolactam, ring places not given here) [SEQ ID NO: 239]",0.02
10,"cyclo([Bip(4'-COOH)][4Pal][Phe(4-COOH)]G[Pro(cis-4-F)][Trp(βS-Me,4-F)][Aib]SW[d(αMeD)][d3Pal]Q[Dab]G[dProc3CH24Pal]) (ring closure inferred) [SEQ ID NO: 240]",0.025
11,"[Bip(4'-COOH)][4Pal][Phe(4-COOH)]G[Pro(cis-4-F)][Trp(βS-Me,4-F)][Aib]SW[Aib][dD]Q[Dab]G[dProc3CH24Pal] (lactam (positions not given here); also: macrolactam, ring places not given here) [SEQ ID NO: 234]",0.024

# From patent US20260242419A1, “A CYCLIC PEPTIDE FOR TRAPPING INTERLEUKIN-1 BETA” (Merck Sharp & Dohme LLC, priority 2023, published 2026)
